According to PMC9482650, “Quantitative fragmentomics allow affinity mapping of interactomes” (Nature Communications, 2022):

Assays:
Test in all cases: holdup assay
Design in all cases: key: below the threshold = too weak to quantify, mostly under pKd 3.1 to 4
O00233 = conditions: plain residues with an end cap or a label only (N-terminal biotin on a linker: ttds)
O00560 = conditions: plain residues with an end cap or a label only (N-terminal biotin on a linker: ttds)
O15021 = conditions: plain residues with an end cap or a label only (N-terminal biotin on a linker: ttds)
O43166 = conditions: plain residues with an end cap or a label only (N-terminal biotin on a linker: ttds)
O60759 = conditions: plain residues with an end cap or a label only (N-terminal biotin on a linker: ttds)
O75970 = conditions: plain residues with an end cap or a label only (N-terminal biotin on a linker: ttds)
Q12923 = conditions: plain residues with an end cap or a label only (N-terminal biotin on a linker: ttds)
Q13009 = conditions: plain residues with an end cap or a label only (N-terminal biotin on a linker: ttds)
Q13368 = conditions: plain residues with an end cap or a label only (N-terminal biotin on a linker: ttds)
Q5TCQ9 = conditions: plain residues with an end cap or a label only (N-terminal biotin on a linker: ttds)
Q6ZWJ1 = conditions: plain residues with an end cap or a label only (N-terminal biotin on a linker: ttds)
Q70Z35 = conditions: plain residues with an end cap or a label only (N-terminal biotin on a linker: ttds)
Q8IUC4 = conditions: plain residues with an end cap or a label only (N-terminal biotin on a linker: ttds)
Q8TB45 = conditions: plain residues with an end cap or a label only (N-terminal biotin on a linker: ttds)
Q8TDM6 = conditions: plain residues with an end cap or a label only (N-terminal biotin on a linker: ttds)
Q8TEW0 = conditions: plain residues with an end cap or a label only (N-terminal biotin on a linker: ttds)
Q92614 = conditions: plain residues with an end cap or a label only (N-terminal biotin on a linker: ttds)
Q96FS4 = conditions: plain residues with an end cap or a label only (N-terminal biotin on a linker: ttds)
Q96HC4 = conditions: plain residues with an end cap or a label only (N-terminal biotin on a linker: ttds)
Q96JB8 = conditions: plain residues with an end cap or a label only (N-terminal biotin on a linker: ttds)
Q96JY6 = conditions: plain residues with an end cap or a label only (N-terminal biotin on a linker: ttds)
Q96SB3 = conditions: plain residues with an end cap or a label only (N-terminal biotin on a linker: ttds)
Q9C0E4 = conditions: plain residues with an end cap or a label only (N-terminal biotin on a linker: ttds)
Q9H190 = conditions: plain residues with an end cap or a label only (N-terminal biotin on a linker: ttds)
Q9NPB6 = conditions: plain residues with an end cap or a label only (N-terminal biotin on a linker: ttds)
Q9NR12 = conditions: plain residues with an end cap or a label only (N-terminal biotin on a linker: ttds)
Q9P227 = conditions: plain residues with an end cap or a label only (N-terminal biotin on a linker: ttds)
Q9UDY2 = conditions: plain residues with an end cap or a label only (N-terminal biotin on a linker: ttds)
Q9ULJ8 = conditions: plain residues with an end cap or a label only (N-terminal biotin on a linker: ttds)
Q9UMS6 = conditions: plain residues with an end cap or a label only (N-terminal biotin on a linker: ttds)
Q9Y3R0 = conditions: plain residues with an end cap or a label only (N-terminal biotin on a linker: ttds)
LNX2_1, Q8N448 = target: T1, LNX2_1, Q8N448
T1 sequence (Q8N448 228-328, limits assumed, looked up): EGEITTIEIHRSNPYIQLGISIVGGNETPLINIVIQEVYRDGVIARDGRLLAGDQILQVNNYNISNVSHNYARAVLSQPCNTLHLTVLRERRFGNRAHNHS

[1] = plain residues with an end cap or a label only (N-terminal biotin on a linker: ttds)

Measured: pKd

RHTTSTETAV [HPV30-E6, P36809]
below the threshold: O00233 | O00560 | O15021 | O43166 | O60759 | O75970 | Q12923 | Q13009 | Q13368 | Q5TCQ9 | Q6ZWJ1 | Q70Z35 | Q8IUC4 | Q8TB45 | Q8TDM6 | Q8TEW0 | Q92614 | Q96FS4 | Q96HC4 | Q96JB8 | Q96JY6 | Q96SB3 | Q9C0E4 | Q9H190 | Q9NPB6 | Q9NR12 | Q9P227 | Q9UDY2 | Q9ULJ8 | Q9UMS6 | Q9Y3R0

SKPTRRETEV [HPV35-E6, P27228]
below the threshold: LNX2_1, Q8N448; [1]

SSLQSLETSV [ATP2B4, P23634]
below the threshold: O00233 | O00560 | O15021 | O43166 | O60759 | O75970 | Q12923 | Q13009 | Q13368 | Q5TCQ9 | Q6ZWJ1 | Q70Z35 | Q8IUC4 | Q8TB45 | Q8TDM6 | Q8TEW0 | Q92614 | Q96FS4 | Q96HC4 | Q96JB8 | Q96JY6 | Q96SB3 | Q9C0E4 | Q9H190 | Q9NPB6 | Q9NR12 | Q9P227 | Q9UDY2 | Q9ULJ8 | Q9UMS6 | Q9Y3R0

RLPKIKETTV [FRMPD4, Q14CM0]
below the threshold: O00233 | O00560 | O15021 | O43166 | O60759 | O75970 | Q12923 | Q13009 | Q13368 | Q5TCQ9 | Q6ZWJ1 | Q70Z35 | Q8IUC4 | Q8TEW0 | Q92614 | Q96FS4 | Q96HC4 | Q96JB8 | Q96JY6 | Q96SB3 | Q9C0E4 | Q9H190 | Q9NPB6 | Q9NR12 | Q9P227 | Q9UDY2 | Q9ULJ8 | Q9UMS6 | Q9Y3R0

QRQARSETLV [HPV59-E6, Q81964]
below the threshold: O00233 | O00560 | O15021 | O43166 | O60759 | O75970 | Q12923 | Q13009 | Q13368 | Q5TCQ9 | Q6ZWJ1 | Q70Z35 | Q8IUC4 | Q8TB45 | Q8TDM6 | Q8TEW0 | Q92614 | Q96FS4 | Q96HC4 | Q96JB8 | Q96JY6 | Q96SB3 | Q9C0E4 | Q9H190 | Q9NPB6 | Q9NR12 | Q9P227 | Q9UDY2 | Q9ULJ8 | Q9UMS6 | Q9Y3R0

RLQRRRETQV [HPV18-E6, P06463]
below the threshold: LNX2_1, Q8N448; [1]

RPLPRKVSQL [DOCK4, Q8N1I0]
below the threshold: O00233 | O00560 | O15021 | O43166 | O60759 | O75970 | Q12923 | Q13009 | Q13368 | Q5TCQ9 | Q6ZWJ1 | Q70Z35 | Q8IUC4 | Q8TEW0 | Q92614 | Q96FS4 | Q96HC4 | Q96JB8 | Q96JY6 | Q96SB3 | Q9C0E4 | Q9H190 | Q9NPB6 | Q9NR12 | Q9P227 | Q9UDY2 | Q9ULJ8 | Q9UMS6 | Q9Y3R0

NLNSSRVPDLLV [SARS-CoV2-E, P0DTC4]
below the threshold: LNX2_1, Q8N448; plain residues with an end cap or a label only (N-terminal biotin on a linker: none)
